# Assay results from the domain aggregation screens of Martell et al. (2025).
# Assay: soluble fraction after stress (log2 fold change); higher = more stays soluble; pooled small domains, quantitative proteomics
# Conditions: stress: 75 degC
# 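Further: 20 min heating vs room temperature control held 20 min.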
row,Sequence,soluble fraction (log2)
1,HMSLSISSLVFFRKNAGLTQADIATAMSITQSAVARLEKRLLSDSDVTLKTLERYAEAVGIRMHVDFEP,0.01
2,HMSLSKEEFETISKQVLELAGAGPIPVKELLQKMERTSKEKAWKVIEFLQAEDKIVPDATGRIQL,-0.727
3,HMSLSKQETEFLTTFSASGKRVFTYQQATDYWQSKVAATNVLGRLVRKGWLQRLERGLYMIIPLEAGPERF,-1.71
4,HMSLSPAATRSRGYPSVLLTMKAPERLVSAAGPDRRAYLVGTDPLVIELPGVKGLYKVDPDQIVFE,-0.0024
5,HMSLTEEQVDSGLKEIRLALLEADVALPVVKNFITNIKPKAIGQEIIRSTSPGQMIVKIVYDELVSIL,-0.066
6,HMSLTEESAKSLIGLTENEAVKVAAERGWTVRVAMRDGEAFMLTQDYSENRVNLTVMKTLVTAVTI,-3.32
7,HMSLTMPKLIGMHLFQAERTLNYYGFQYKVEGPDSASVVIDQYPKEGVTVDPHYPITLKIGPSA,-2.18
8,HMSLYGGYEIDIIKEEVVDAGIKLLRRRVIVADQRGISVYEGKPTFASDDQVLIKEGQYQIDKLG,-2.46
9,HMSMHVHTPNPDFKPSNTNALQEGQLVEHPKFGFGKVQKIETEGLNKKASIQFEHFGEKTLLLSFAKLRII,-1.47
10,HMSMLGTEQRVLVLGPARKGEGFLMARTDNNRIVNFEGPLSLVDTMVRVKVTDVYPHSLGGQLL,-1.51
11,HMSMPDERMLTSWMMARVKAAGKTMTRDAWNEFFERSNDSMDHMDMEMEKLLSYVYDKDGITLEDVEA,-0.223
12,HMSMQIILLDKVVNLGGLGDVVKVKDGYARNYLIPQGKAKRANTANLAEFEARRVELERLAAEQLAQAQA,-0.0666
13,HMSMRIDTNTLNYYVQNAQISLSVLRTKINNLDQFLSGEKQPTFNQLSEIAKKINVPTGLLLLNKS,-2.17
14,HMSMSKISNLLEIMMIIQYKGLTTASELAQSLGVDKKTVYRYINSLSKANIPIYTKKGRYGGFYIDKNF,-1.29
15,HMSMSTVGERIKKKRKNLNFTQQELAAKLNISAQAVSKWENGVALPDLGLMPKLAQVLESTVDGLLGYQGA,-0.756
16,HMSMTLSVLDDVRGLSESRRKQLFHSFGSIKKLREQSKETLMSIPYLPEKVALELYDKLHEE,-0.243
17,HMSMVGSVNKQGRPFALLRVDNLLYQVKVGDYLGQNYGRITQIDETQIALREIVQDAAGEWIERPGVLQL,0.294
18,HMSNATELVYDDGRKLLISYETLVGGYHPDLGWIRTAKTYSISTDKHIRNYFNNVTNPRVVGEDILETLKI,0.109
19,HMSNDRSYLARLQDYYAEHRALPSYASIGALLGLRSKSSVAALVARLKLAGFVESTPDRRLAPTRRFF,-4.01

row,Sequence,soluble fraction (log2)
1,HMSNEWIEISAKTVDDAINEGLIRLGTTTDKMDVEVLEKESAGFLGFIGKHDAKIRVRFKEV,-0.0738
2,HMSNGYVTAKTTVNVRKSASESGERLGVIYQGDKLELVMNQADGWTKVKYKGQTAYVKSEFM,-1.27
3,HMSNHYETLGVPRDASQEDIKRAYRRLARKLHPDVAGPGKAEEFKAVNEAYAVLSDEESRRMYDLGGDDAL,0.157
4,HMSNIQLVENLYRLRKAHHYTQQEISDLLNISRQAYSNYETSKRTPDLDSLMRLADIYGVSLDQLVNHP,-1.93
5,HMSNLENSLNESLSLLKSNKYNEALEILKKIEIEDSRVFFLLGTIYSVMKNINLGEEFLIKASK,-1.64
6,HMSNLGLQIVRTLTDAGKGVVFITHKLKEALTIADRINVLRRGKVVGDADPKTASESQIAEMMVGRPVQL,-0.0755
7,HMSNMWVWSKLSGIQWMDAWEDRFHGNPNTVITRLKTNKTVRVEVYTETEQEALDIKKLFGGSIRKLV,-3.09
8,HMSNRFIQFRQRAIDWLNSDRDFNAGILLLEESGFKPGVVAKLKRHGVNGPEAKKRLKFLINELVKAWA,-1.2
9,HMSNVKVYPNPTSGKLTIDAENYKGVEVYDTSGRLIVKSELRTIDLEEQSKGLYLLKVNANGTTQEFKVFK,-0.0433
10,HMSNYLKSVEVFDPITNKWSYVSAMKVRRGYVAVVATMDRLYAIGGYDGENYLSTVEMYNPDTN,0.108
11,HMSPAVSLITGKLGAETYYKQGLKKAKEKDYEGALDDLIKAYEFFPDKKIKTQVDKLASFLGKPPIL,-0.259
12,HMSPIKAGDLVKITGTKYYRGQTIPSWVKAKNWFVHSVSGDRAVINKSEDGKNAIMSPVKVSNLALVT,0.0902
13,HMSPILTPDQATKAYGKDGVLYIHSNKERTIYIYDVTGRTVRILEAVEGENQINGLEKGIYFLEGQKVAV,-1.36
14,HMSPLQLGNYNTLRITRFTDHGAYLDGGDVGEILMPKTYVLPEMKPGDEVRVFVYLDQEERLVGTTET,-0.622
15,HMSPPVIQQGQDVRLIYKGTGFAVSNEGKALNTAADGQVARARTGGGQTVSGIARPGGIIEIT,0.391
16,HMSPQPPNQEAVRTRILDQAAHLFLTIGYAETTVRRIAGAVGIKAASLYHHFGSKDEVFESILIR,0.274
17,HMSPRADRSVNLDVGETVQIDDWGADGTAQIRYRGAPWTAVLRPGHTPHPGPHRVIELVGSRLLVEP,0.0352
18,HMSPRAIYVTTSDLNMRMQPSPNAYKRGVAPRGTELLVVEWGDDWSKVIFEGDTAYAASRYLSYVKDEP,-1.74
19,HMSQDEVVADMKADLGPDADNIIRSNIQWADGLVRKGILTESEREELDVMGGTPEAQRILVKLRTMQG,0.178
